± gives the standard deviation of the averaged measurements.
B1: library; a variant is named by its letters at N, in order (parent)
chain: GCUGUCACCGGUGUAUUACCCUAGUGGUCGACCGGUCUGAUGAGUCUNNNNNNAGACGAAACAGC

Legend:
hypoxanthine [1] = variants of: B1; test: FACS-Seq fitted mean relative fluorescence mCherry/BFP without ligand (log10 relative fluorescence); ligand: hypoxanthine (xanthine aptamer); higher = higher reporter protein expression; conditions: HEK293T, ligand present: no
Procedure, shortened: (§1)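 Cells were sorted into 6 bins on the mCherry/BFP ratio after 48 h with or without ligand. These were enriched HEK293T cells transduced by lentivirus with a ribozyme-switch mCherry reporter plus an EF1α-BFP marker. Fluorescence was obtained by fitting a normal distribution to sequencing-derived bin counts. Counts came from MiSeq sequencing of PCR-amplified, barcoded genomic DNA, binned by log10(mCherry/BFP), with means scaled to five spiked-in control ribozymes.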

hypoxanthine [2] = variants of: B1; test: normalized RNA/DNA level with ligand (relative to sTRSVctl = 100) (log10 (% of sTRSVctl)); ligand: hypoxanthine (xanthine aptamer); higher = less ribozyme self-cleavage, higher mRNA level; conditions: ligand concentration (+) RNA-Seq: 5 mM, HEK293T, reporter: mCherry (pCS4076), ligand present: yes
Experimental: (§2)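 Hammerhead (sTRSV) ribozyme switch libraries with a ligand aptamer grafted on stem I and a randomized N4-6 loop II, cloned into the 3' UTR of mCherry and transiently transfected into HEK293T cells; RNA-Seq 72 h post transfection with ligand added 1 h before transfection; RNA read count / plasmid DNA read count normalized to the non-cleaving sTRSVctl (x100), log10; sequences with >100 DNA reads. FACS-Seq: lentiviral library sorted into 6 bins after 48 h ligand, log-normal fit mean of mCherry/BFP scaled to controls. Printed sequences are partial switch sequences.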

hypoxanthine [3] = variants of: B1; test: normalized RNA/DNA level without ligand (relative to sTRSVctl = 100) (log10 (% of sTRSVctl)); ligand: hypoxanthine (xanthine aptamer); higher = less ribozyme self-cleavage, higher mRNA level; conditions: HEK293T, reporter: mCherry (pCS4076), ligand present: no
Experimental: as §2

hypoxanthine [4] = variants of: B1; test: FACS-Seq fitted mean relative fluorescence mCherry/BFP with ligand (log10 relative fluorescence); ligand: hypoxanthine (xanthine aptamer); ligand concentration (+) FACS-Seq: 5 mM; higher = higher reporter protein expression; conditions: HEK293T, ligand present: yes
Procedure, shortened: as §1

Row | Variant | FACS-Seq fitted mean (log10) (hypoxanthine [1]) | normalized RNA/DNA level with ligand (log10) (hypoxanthine [2]) | normalized RNA/DNA level without ligand (log10) (hypoxanthine [3]) | FACS-Seq fitted mean (log10) (hypoxanthine [4])
1 | AAUGAC | 0.585 ± 0.07 | 1.894 ± 0.0079 | 1.83 ± 0.049 | 0.5447 ± 0.0044
2 | UAGGUG | 0.399 ± 0.065 | 1.89 ± 0.079 | 1.61 ± 0.035 | 0.591 ± 0.012
3 | CAAGAA | 0.513 ± 0.021 | 1.89 ± 0.03 | 1.7 ± 0.044 | 0.45 ± 0.091
4 | AACUUU | 0.233 ± 0.078 | 1.92 ± 0.038 | 1.9 ± 0.058 | 0.348 ± 0.087
5 | GUUACG | 0.564 ± 0.075 | 1.88 ± 0.03 | 1.59 ± 0.027 | 0.566 ± 0.043
6 | AUUUUU | 0.433 ± 0.019 | 1.93 ± 0.054 | 1.88 ± 0.032 | 0.378 ± 0.044
7 | GGAUGC | -0.0215 ± 0.024 | 1.85 ± 0.066 | 1.47 ± 0.075 | 0.483 ± 0.029
8 | AGCCCG | -0.024 ± 0.027 | 1.956 ± 0.0061 | 1.61 ± 0.087 | 0.388 ± 0.038
9 | GGCGGA | 0.416 ± 0.079 | 1.98 ± 0.043 | 1.837 ± 0.013 | 0.534 ± 0.03
10 | GCAUUG | 0.25 ± 0.015 | 1.88 ± 0.0068 | 1.4 ± 0.022 | 0.602 ± 0.062
11 | ACUGGU | 0.0934 ± 0.044 | 1.926 ± 0.0036 | 1.65 ± 0.06 | 0.1 ± 0.11
12 | UUUGAA | 0.522 ± 0.076 | 1.9 ± 0.041 | 1.75 ± 0.036 | 0.351 ± 0.04
13 | UUCUAA | 0.391 ± 0.23 | 1.961 ± 0.018 | 1.85 ± 0.077 | -0.13 ± 0.28
14 | CCGUGG | 0.237 ± 0.043 | 1.823 ± 0.0069 | 1.23 ± 0.16 | 0.718 ± 0.053
15 | CAGUAG | 0.475 ± 0.064 | 1.91 ± 0.11 | 1.57 ± 0.026 | 0.586 ± 0.0075
16 | CGAGGU | 0.491 ± 0.077 | 1.96 ± 0.027 | 1.86 ± 0.019 | 0.625 ± 0.12
17 | CGAGGG | -0.0981 ± 0.041 | 1.8 ± 0.077 | 1.3 ± 0.047 | 0.0226 ± 0.19
18 | UAGAAC | 0.437 ± 0.028 | 1.93 ± 0.031 | 1.809 ± 0.014 | 0.578 ± 0.076
19 | GUUGUU | 0.56 ± 0.026 | 1.969 ± 0.0045 | 1.9 ± 0.029 | 0.67542 ± 0.00062
20 | UAAUUC | 0.569 ± 0.0061 | 1.96 ± 0.029 | 1.91 ± 0.0049 | 0.671 ± 0.032
21 | GCACGG | -0.136 ± 0.023 | 1.86 ± 0.026 | 1.444 ± 0.009 | 0.376 ± 0.087
22 | UUUAAU | 0.485 ± 0.013 | 1.918 ± 0.01 | 1.856 ± 0.0057 | 0.421 ± 0.053
23 | GUCGCA | 0.304 ± 0.021 | 1.94 ± 0.037 | 1.788 ± 0.0024 | 0.56 ± 0.0098
24 | AUGUAU | -0.142 ± 0.082 | 1.925 ± 0.0046 | 1.73 ± 0.021 | 0.156 ± 0.0021

Row | Variant | FACS-Seq fitted mean (log10) (hypoxanthine [1]) | normalized RNA/DNA level with ligand (log10) (hypoxanthine [2]) | normalized RNA/DNA level without ligand (log10) (hypoxanthine [3]) | FACS-Seq fitted mean (log10) (hypoxanthine [4])
25 | ACUUCG | 0.592 ± 0.03 | 1.9 ± 0.024 | 1.6 ± 0.1 | 0.766 ± 0.1
26 | AGCAGC | 0.426 ± 0.013 | 1.99 ± 0.058 | 1.74 ± 0.049 | 0.54 ± 0.14
27 | CAGCAU | 0.36 ± 0.085 | 1.947 ± 0.0067 | 1.71 ± 0.029 | 0.642 ± 0.028
28 | GACUGA | 0.742 ± 0.053 | 1.94 ± 0.072 | 1.763 ± 0.011 | 0.639 ± 0.17
29 | GACUGG | 0.157 ± 0.015 | 1.758 ± 0.0058 | 1.42 ± 0.045 | 0.6446 ± 0.0029
30 | UCAUAA | 0.7537 ± 0.0032 | 1.93 ± 0.029 | 1.75 ± 0.025 | 0.622 ± 0.0065
31 | CGAUAA | 0.668 ± 0.13 | 1.86 ± 0.047 | 1.57 ± 0.022 | 0.637 ± 0.12
32 | AUACAA | 0.364 ± 0.062 | 1.9 ± 0.037 | 1.76 ± 0.024 | 0.532 ± 0.013
33 | GCCAUG | 0.392 ± 0.0043 | 1.87 ± 0.094 | 1.48 ± 0.15 | 0.683 ± 0.074
34 | UUCGUA | 0.252 ± 0.0058 | 1.93 ± 0.064 | 1.87 ± 0.026 | 0.384 ± 0.035
35 | AGGGUA | 0.412 ± 0.086 | 1.95 ± 0.041 | 1.82 ± 0.0091 | 0.427 ± 0.064
36 | UCAUCA | 0.87 ± 0.1 | 1.99 ± 0.031 | 1.98 ± 0.044 | 0.763 ± 0.052
37 | UACCGA | 0.439 ± 0.021 | 1.91 ± 0.041 | 1.75 ± 0.024 | 0.551 ± 0.044
38 | UACCGU | 0.0177 ± 0.0044 | 1.95 ± 0.08 | 1.7185 ± 0.00046 | 0.448 ± 0.028
39 | CAACUA | 0.494 ± 0.084 | 1.93 ± 0.029 | 1.709 ± 0.011 | 0.695 ± 0.016
40 | ACCAAA | 0.2 ± 0.028 | 1.938 ± 0.011 | 1.8 ± 0.018 | 0.487 ± 0.046
41 | GCUAUG | 0.086 ± 0.067 | 1.86 ± 0.025 | 1.36 ± 0.065 | 0.318 ± 0.022
42 | CCUCGA | 0.268 ± 0.026 | 2 ± 0.011 | 1.87 ± 0.044 | 0.314 ± 0.059
43 | UCCGUU | -0.463 ± 0.04 | 1.946 ± 0.016 | 1.925 ± 0.019 | -0.148 ± 0.1
44 | ACUCUA | 0.438 ± 0.061 | 1.947 ± 0.0039 | 1.86 ± 0.055 | 0.585 ± 0.062
45 | AUAAUG | 0.211 ± 0.039 | 1.838 ± 0.013 | 1.51 ± 0.064 | 0.551 ± 0.036
46 | GAGAAU | 0.4579 ± 0.0037 | 1.91 ± 0.021 | 1.67 ± 0.023 | 0.611 ± 0.05
47 | UGGCAU | 0.353 ± 0.011 | 1.95 ± 0.06 | 1.755 ± 0.014 | 0.465 ± 0.046
48 | GAUGAG | 0.0708 ± 0.0074 | 1.74 ± 0.028 | 1.3 ± 0.067 | 0.572 ± 0.047

Row | Variant | FACS-Seq fitted mean (log10) (hypoxanthine [1]) | normalized RNA/DNA level with ligand (log10) (hypoxanthine [2]) | normalized RNA/DNA level without ligand (log10) (hypoxanthine [3]) | FACS-Seq fitted mean (log10) (hypoxanthine [4])
49 | CUUACC | 0.555 ± 0.022 | 1.91 ± 0.046 | 1.907 ± 0.0033 | 0.393 ± 0.022
50 | UCCACG | -0.24 ± 0.012 | 1.94 ± 0.14 | 1.71 ± 0.036 | 0.0232 ± 0.017
51 | GUGACG | 0.259 ± 0.081 | 1.828 ± 0.0026 | 1.37 ± 0.044 | 0.523 ± 0.031
52 | GUGACU | -0.666 ± 0.018 | 1.92 ± 0.02 | 1.88 ± 0.049 | -0.229 ± 0.049
53 | CAUGCU | 0.614 ± 0.036 | 1.97 ± 0.039 | 1.904 ± 0.013 | 0.529 ± 0.073
54 | CAUGCG | 0.687 ± 0.064 | 1.92 ± 0.049 | 1.91 ± 0.082 | 0.645 ± 0.005
55 | AGGCGU | 0.521 ± 0.063 | 1.94 ± 0.02 | 1.67 ± 0.025 | 0.656 ± 0.01
56 | CAAAGU | 0.529 ± 0.021 | 1.89 ± 0.0058 | 1.82 ± 0.033 | 0.571 ± 0.0084
57 | GAUCGG | 0.125 ± 0.0082 | 1.911 ± 0.012 | 1.59 ± 0.07 | 0.418 ± 0.018
58 | UGUCUA | -0.725 ± 0.058 | 1.95 ± 0.067 | 1.92 ± 0.02 | -0.723 ± 0.08
59 | GGAGCU | 0.211 ± 0.041 | 1.956 ± 0.0072 | 1.96 ± 0.044 | -0.117 ± 0.033
60 | UCCCAC | 0.0771 ± 0.00054 | 1.894 ± 0.014 | 1.56 ± 0.017 | 0.177 ± 0.043
61 | CCCUGA | 0.263 ± 0.023 | 1.92 ± 0.031 | 1.88 ± 0.039 | 0.308 ± 0.011
62 | GAUACA | 0.774 ± 0.022 | 1.93 ± 0.095 | 1.83 ± 0.0097 | 0.711 ± 0.11
63 | UGAGCG | 0.3069 ± 0.0029 | 1.9 ± 0.049 | 1.7 ± 0.043 | 0.323 ± 0.026
64 | UGAGCU | 0.136 ± 0.16 | 1.918 ± 0.018 | 1.904 ± 0.017 | -0.0419 ± 0.064
65 | UGGAGA | 0.259 ± 0.025 | 1.791 ± 0.0083 | 1.33 ± 0.092 | 0.644 ± 0.0081
66 | AAUCAC | -0.698 ± 0.014 | 1.95 ± 0.04 | 1.849 ± 0.0051 | -0.545 ± 0.04
67 | AAUAUG | 0.333 ± 0.056 | 1.84 ± 0.04 | 1.462 ± 0.014 | 0.53 ± 0.0062
68 | AAAGAU | 0.523 ± 0.055 | 1.895 ± 0.016 | 1.68 ± 0.017 | 0.708 ± 0.025
69 | UAGUGA | 0.153 ± 0.015 | 1.88 ± 0.033 | 1.57 ± 0.041 | 0.438 ± 0.039
70 | CACUGG | 0.504 ± 0.03 | 1.9 ± 0.019 | 1.43 ± 0.16 | 0.709 ± 0.016
71 | GGGAAA | 0.227 ± 0.0031 | 1.867 ± 0.0029 | 1.57 ± 0.028 | 0.428 ± 0.03
72 | UCCGGG | -0.0285 ± 0.023 | 1.98 ± 0.047 | 1.93 ± 0.031 | 0.2736 ± 0.00093
